Measurements published in PMC7870652.

Experiments:
[1] = target: CDH23 EC1-5/EC3-5 single-bond fusion protein (asymmetric Fc heterodimer with one EC1-2 binding domain) (mouse) (UniProt Q99PF4); test: single-molecule force spectroscopy (optical tweezers); single-bond EC1-5/EC3-5 proteins, each on a DNA tether on a streptavidin bead in a dual-beam optical trap; 50 µM Ca2+, TBS buffer, room temperature; Bell-Evans fit of most-probable unbinding forces against loading rate, constants extrapolated to zero force
[2] = target: truncated CDH23 EC1-5 dimer fusion protein (two EC1-5 strands) (mouse); test: BLI; CDH23 biotinylated on its SNAPtag and immobilised on streptavidin-coated PEG-biotin aminopropylsilane sensors; 10–300 nM PCDH15 in solution; TBS-Tween + Ca^2+ buffer, 2 mM Ca^2+; traces of a drift sensor and of PCDH15 lacking EC1-2 subtracted; dissociation fitted with a single exponential; on-rates measured at 300 nM PCDH15 (effective on-rate); Octet Red384

**Q.** “PCDH15 EC1-5/EC3-5 single-bond fusion protein (asymmetric Fc heterodimer with one EC1-2 binding domain) (from UniProt Q99PJ1-1 27-1943; Q99PJ1-1 27-1943) (Fc fusion)” was tested. Which koff [1] did it give?
**A.** Its koff is 1.2 s⁻¹.

**Q.** Which mean lifetime of the connection at zero force [2] does the source give for “truncated PCDH15 EC1-5 dimer fusion protein (two EC1-5 strands) (Fc fusion)” here?
**A.** Its mean lifetime of the connection at zero force is 27.1 s.
